For test [1], the target named is T1, human Kv1.3 (Homo sapiens, UniProt P22001).
T1 construct: cell lines stably expressing the full length human Kv1.3 channel
Put plainly: IonFlux automated patch clamp, Kv1.3-expressing HEK293H cells. It counts as cell-based. Particulars: monovalent Nanobodies, concentration at which Kv1.3 current is 50%. The source says: Periplasmic extracts were electrophysiologically screened for inhibitory effects on the voltage-gated potassium channel Kv1.3 on the IonFlux™ automated Patch Clamp using Kv1.3-expressing HEK293H cells. The complete procedure for evaluating the modulatory effect of periplasmic extracts on human Kv1.3 via electrophysiological recordings is given below.
The IonFlux™ (Molecular Devices) is an automated patch clamp system with integrated Well Plate Microfluidic™ Technology, temperature control and continuous perfusion and voltage clamp. The IonFlux™ 16 has sixteen parallel amplifiers and uses 96-well IonFlux plates conform to the Society for Biomolecular Sciences. This system allows both population and single cell patch clamp.
Extracellular solution contained (in mM): 132 NaCl, 5.4 KCl, 1.8 CaCl2, 0.8 MgCl2, 10 HEPES, 5 glucose (pH 7.2 with NaOH, and 285-290 mOsmolar). Intracellular solution contained (in mM): 40 KF, 100 KCl, 2 MgCl2, 10 HEPES, 5 EGTA (pH 7.45 with CsOH, and 300-315 mOsmolar). These solutions were freshly made, stocked for no longer than a month at 4° C. and filtered prior to use. […]
HEK293H cells stably expressing the human Kv1.3 channel were generated in house. […] Cells were counted (Casy T T, Roche), suspended at 1 million cells/ml, transferred to a new 50 ml conical CELLSTAR® tube and gently shaken at RT for approximately 20 min. […]

The subject of a further test is CCR7−CD45RA− T cells. It counts as cell-based, human. Particulars: for IC50: monovalent Nanobodies. The text has this:
The purified anti-Kv1.3 Nanobodies were characterized in a T Cell-activation assay. Human T Cells were first collected from Buffy Coat blood (from healthy volunteers, Bloodbank Gent) using RosetteSep (StemCell Technologies, #15061) followed by an enrichment on Ficoll-Paque™ PLUS (GE Healthcare #17-1440-03). CCR7−CD45RA− T cells were isolated through negative selection using biotinylated antibodies against CD45RA (BD Bioscience #624008) and CCR7 (BD Bioscence #624009) in addition to the Dynabeads Biotin Binder (Invitrogen #110.47). The purity of the population was afterwards checked with anti-CD3 (eBioscience #12-0037-73); anti-CD8 (BD Bioscience #345775); anti-CD4 (BD Bioscience #345771); anti-CD45RO (BD Bioscience #555493); anti-CD45RA (BD Bioscience #550855); anti-rat IgG (Jackson ImmunoResearch Laboratories #112-116-143); anti-CD19 (BD Bioscience #555413) and anti-Human CCR7 (R&D Systems #MAB197) labeled antibodies in flow cytometric assay.
Isolated CCR7^−CD45RA^− T Cells were then stimulated on anti-CD3 (eBioscience 16-0037-85; 540 ng/ml) coated 96-well plates at a concentration of 200 000 cells/well in absence or presence of dilution series of anti-Kv1.3 antibodies and ShK positive control (Smartox, #08SHK001). After 72 h, IFN-gamma production was measured with anti-human IFNγ antibody capture in ELISA (BD Bioscence #551221) combined with biotinylated anti-human IFNγ (BD Bioscience, #554550) and streptavidin-HRP (Dakocytomation #P0397) as detection (FIG. 11A-11B).
In addition, also CD25 expression was measured in flow cytometry, using an anti-CD25 antibody (BD Pharmingen, cat 557138) (FIG. 11C-11D). […]

Test [2] deals with T1, human Kv1.3. Briefly: IonWorks Quattro automated perforated patch clamp, Kv1.3-expressing CHL cells. The test is classed as cell-based. The following applies: monovalent Nanobodies, sustained current P1. The source says:
Selected Nanobodies were electrophysiologically characterized on human Kv1.3 on the IonWorks automated perforated-Patch Clamp using Kv1.3-expressing Chinese Hamster Lung (CHL) cells. The procedure for evaluating the modulatory effect of the purified Nanobodies on human Kv1.3 via electrophysiological recordings is given below.
IonWorks Quattro (Molecular Devices) is a second-generation screening instrument that provides membrane voltage control and provides a direct electrophysiological assay for screening and characterization of compounds. It is an automated, high-throughput planar perforated patch clamp that uses a 384-well PatchPlate™ substrate.
Extracellular solution contained (in mM): 138 NaCl, 2.7 KCl, 0.9 CaCl2, 0.5 MgCl2, 8 Na2HPO4, and 1.5 KH2PO4 (pH 7.3 with NaOH, and 285-290 mOsmolar). The intracellular solution contained (in mM): 100 K-gluconate, 40 KCl, 3.2 EGTA, 5 HEPES and 3.2 MgCl2 (pH 7.3 with KOH, and 300-315 mOsmolar). These solutions were freshly made, stocked for no longer than a month at 4° C. and filtered prior to use. The selected Nanobodies were directly diluted in extracellular solution to obtain a 3 μM sample solution. […]
The basic principles of IonWorks automated patch clamp electrophysiology are described by Schroeder et al. (J Biomol Screen 8(1):50-64, 2003). […] In PPC mode, an ensemble average of the current from up to 64 cells per well was recorded. […]

Read-outs that look alike come from different tables or passages of the source.

T1 sequence (P22001 whole entry): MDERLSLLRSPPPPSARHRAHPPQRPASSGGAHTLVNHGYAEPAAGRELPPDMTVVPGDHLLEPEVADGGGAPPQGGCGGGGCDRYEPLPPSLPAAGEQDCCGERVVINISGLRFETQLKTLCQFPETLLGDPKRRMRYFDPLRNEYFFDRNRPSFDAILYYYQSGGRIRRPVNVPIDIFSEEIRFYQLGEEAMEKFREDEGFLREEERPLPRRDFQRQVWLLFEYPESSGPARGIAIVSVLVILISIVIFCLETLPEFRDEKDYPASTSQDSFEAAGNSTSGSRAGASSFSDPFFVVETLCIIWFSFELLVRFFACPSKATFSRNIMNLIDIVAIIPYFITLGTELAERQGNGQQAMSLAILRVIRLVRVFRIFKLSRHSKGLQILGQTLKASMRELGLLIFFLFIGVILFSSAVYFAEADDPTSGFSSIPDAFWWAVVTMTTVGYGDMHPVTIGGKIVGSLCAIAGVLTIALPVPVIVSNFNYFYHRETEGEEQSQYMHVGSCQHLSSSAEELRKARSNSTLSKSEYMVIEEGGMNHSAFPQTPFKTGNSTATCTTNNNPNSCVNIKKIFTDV

B1: A0194020A06: monovalent anti-Kv1.3 Nanobody, family 12 (protein)
VHH: EVQLVESGGGLVQAGGSLGLSCSASGLLFSRNSAGWYRQAPGKRREFVARIRMGGSINYADSVKGRFTVSRDNAKNMMYLQMNDLKPEDTAVYFCSGWREGFYEYWGQGTLVTVSS
modifications: Nanobody sequence
On to B1, for which the IC50 with human Kv1.3 [1] was 0.0134 µM; in the test with CCR7−CD45RA− T cells (plate bound anti-CD3, 72 h, read-out: IC50 (in M) IFNγ read out), 0.03 µM; in the test on CCR7−CD45RA− T cells (plate bound anti-CD3, read-out: IC50 (in M) CD25 read out), 0.036 µM. In addition, in the test with CCR7−CD45RA− T cells (anti-CD3 stimulation), the “inhibition of T-cell stimulation (IFNγ, CD25), in words” value is “clearly inhibited”.

B2: A0194016B04: monovalent anti-Kv1.3 Nanobody, family 12 (protein)
VHH: EVQLVESGGGLVQAGGSLRLSCSASGLLFSVNSAGWYRQAPGKQRDFVARIRSGGSTNYADSVKGRFTISRDKATNTLYLQMNNLKPEDTAVYYCSSWRTEAYEYWGRGTLVTVSS
modifications: Nanobody sequence
Turning to B2, the IC50 in the test with human Kv1.3 [2] came to 0.034 µM; with human Kv1.3 [1], 0.084 µM.

Values taken from patent US11149086B2, “KV1.3 binding immunoglobulins” (Ablynx N.V., priority 2014, dated 2021).
